From patent US9993529B2, “Stable formulations of a hyaluronan-degrading enzyme” (Halozyme, Inc., priority 2011, dated 2018)

Assay: RP-HPLC insulin apparent solubility / percent recovery (content)
Conditions: for Solubility of Lispro: 7 days at 2-8° C.
Description: Apparent solubility was measured as the percent insulin recovery as compared to the initial formulations/conditions.
Samples were prepared by withdrawing 100 μL from each vial at every time point and centrifuging prior to loading. Samples were stored in an autosampler at 4° C. prior to use, and were considered stable for 3 days after preparation. All samples were tested in duplicate.
For insulin, 20 μL was injected for each HPLC run.
To determine the apparent solubility, the peak area of insulin/insulin analog main peak and desamido peak were integrated and combined together to calculate the percentage relative to the standards. […] The data were processed using Design-Expert® 7.0 (StatEase) and the “historical data” feature. Insulin percent purity was expressed as the percent of main insulin versus all insulin species.

Substance: insulin Lispro: LysB28, ProB29 human insulin analog
- Solubility of Lispro (0.2% methylparaben + […] m-cresol, pH 6.6, NaCl 50 mM): 42.0%
- Solubility of Lispro (0.2% methylparaben + […] m-cresol, pH 6.6, NaCl 80 mM): 28.2%
- Solubility of Lispro (0.2% methylparaben + […] m-cresol, pH 6.6, NaCl 110 mM): 24.1%
- Solubility of Lispro (0.2% methylparaben + […] m-cresol, pH 6.6, NaCl 140 mM): 25.9%
- Solubility of Lispro (0.2% methylparaben + […] m-cresol, pH 6.8, NaCl 50 mM): 82.3%
- Solubility of Lispro (0.2% methylparaben + […] m-cresol, pH 6.8, NaCl 80 mM): 62.6%
- Solubility of Lispro (0.2% methylparaben + […] m-cresol, pH 6.8, NaCl 110 mM): 47.8%
- Solubility of Lispro (0.2% methylparaben + […] m-cresol, pH 6.8, NaCl 140 mM): 42.0%
- Solubility of Lispro (0.2% methylparaben + […] m-cresol, pH 7.0, NaCl 50 mM): 95.3%
- Solubility of Lispro (0.2% methylparaben + […] m-cresol, pH 7.0, NaCl 80 mM): 98.1%
- Solubility of Lispro (0.2% methylparaben + […] m-cresol, pH 7.0, NaCl 110 mM): 94.1%
- Solubility of Lispro (0.2% methylparaben + […] m-cresol, pH 7.0, NaCl 140 mM): 65.6%
- Solubility of Lispro (0.2% methylparaben + […] m-cresol, pH 7.2, NaCl 50 mM): 95.7%
- Solubility of Lispro (0.2% methylparaben + […] m-cresol, pH 7.2, NaCl 80 mM): 97.9%
- Solubility of Lispro (0.2% methylparaben + […] m-cresol, pH 7.2, NaCl 110 mM): 99.6%
- Solubility of Lispro (0.2% methylparaben + […] m-cresol, pH 7.2, NaCl 140 mM): 98.0%
- Solubility of Lispro (0.2% methylparaben + […] m-cresol, pH 7.4, NaCl 50 mM): 95.6%
- Solubility of Lispro (0.2% methylparaben + […] m-cresol, pH 7.4, NaCl 80 mM): 98.2%
- Solubility of Lispro (0.2% methylparaben + […] m-cresol, pH 7.4, NaCl 110 mM): 99.9%
- Solubility of Lispro (0.2% methylparaben + […] m-cresol, pH 7.4, NaCl 140 mM): 98.5%
- Solubility of Lispro (0.2% methylparaben + […] m-cresol, pH 7.6, NaCl 50 mM): 95.7%
- Solubility of Lispro (0.2% methylparaben + […] m-cresol, pH 7.6, NaCl 80 mM): 98.3%
- Solubility of Lispro (0.2% methylparaben + […] m-cresol, pH 7.6, NaCl 110 mM): 100.2%
- Solubility of Lispro (0.2% methylparaben + […] m-cresol, pH 7.6, NaCl 140 mM): 98.8%
- Solubility of Lispro (0.2% phenol + […] m-cresol, pH 6.6, NaCl 50 mM): 52.8%
- Solubility of Lispro (0.2% phenol + […] m-cresol, pH 6.6, NaCl 80 mM): 32.8%
- Solubility of Lispro (0.2% phenol + […] m-cresol, pH 6.6, NaCl 110 mM): 26.0%
- Solubility of Lispro (0.2% phenol + […] m-cresol, pH 6.8, NaCl 50 mM): 91.4%
- Solubility of Lispro (0.2% phenol + […] m-cresol, pH 6.8, NaCl 80 mM): 65.1%
- Solubility of Lispro (0.2% phenol + […] m-cresol, pH 6.8, NaCl 110 mM): 44.9%
- Solubility of Lispro (0.2% phenol + […] m-cresol, pH 6.8, NaCl 140 mM): 40.4%
- Solubility of Lispro (0.2% phenol + […] m-cresol, pH 7.0, NaCl 50 mM): 97.4%
- Solubility of Lispro (0.2% phenol + […] m-cresol, pH 7.0, NaCl 80 mM): 95.5%
- Solubility of Lispro (0.2% phenol + […] m-cresol, pH 7.0, NaCl 110 mM): 75.2%
- Solubility of Lispro (0.2% phenol + […] m-cresol, pH 7.0, NaCl 140 mM): 65.3%
- Solubility of Lispro (0.2% phenol + […] m-cresol, pH 7.2, NaCl 50 mM): 97.6%
- Solubility of Lispro (0.2% phenol + […] m-cresol, pH 7.2, NaCl 80 mM): 97.4%
- Solubility of Lispro (0.2% phenol + […] m-cresol, pH 7.2, NaCl 110 mM): 95.2%
- Solubility of Lispro (0.2% phenol + […] m-cresol, pH 7.2, NaCl 140 mM): 90.8%
- Solubility of Lispro (0.2% phenol + […] m-cresol, pH 7.4, NaCl 50 mM): 97.7%
- Solubility of Lispro (0.2% phenol + […] m-cresol, pH 7.4, NaCl 80 mM): 97.6%
- Solubility of Lispro (0.2% phenol + […] m-cresol, pH 7.4, NaCl 110 mM): 97.0%
- Solubility of Lispro (0.2% phenol + […] m-cresol, pH 7.4, NaCl 140 mM): 96.9%
- Solubility of Lispro (0.2% phenol + […] m-cresol, pH 7.6, NaCl 50 mM): 97.5%
- Solubility of Lispro (0.2% phenol + […] m-cresol, pH 7.6, NaCl 80 mM): 97.7%
- Solubility of Lispro (0.2% phenol + […] m-cresol, pH 7.6, NaCl 110 mM): 97.3%
- Solubility of Lispro (0.2% phenol + […] m-cresol, pH 7.6, NaCl 140 mM): 96.8%
- Solubility (% of 120 U/mL) (2-8° C., pH 7.0, after 1 week at 80, 110 or 140 mM NaCl): below 65%
- Solubility of Lispro ([…] phenol + […] m-cresol, pH 6.6, NaCl 50 mM): 60.3%
- Solubility of Lispro ([…] phenol + […] m-cresol, pH 6.6, NaCl 80 mM): 43.3%
- Solubility of Lispro ([…] phenol + […] m-cresol, pH 6.6, NaCl 110 mM): 24.2%
- Solubility of Lispro ([…] phenol + […] m-cresol, pH 6.6, NaCl 140 mM): 27.7%
- Solubility of Lispro ([…] phenol + […] m-cresol, pH 6.8, NaCl 50 mM): 93.6%
- Solubility of Lispro ([…] phenol + […] m-cresol, pH 6.8, NaCl 80 mM): 60.8%
- Solubility of Lispro ([…] phenol + […] m-cresol, pH 6.8, NaCl 110 mM): 44.9%
- Solubility of Lispro ([…] phenol + […] m-cresol, pH 6.8, NaCl 140 mM): 35.9%
- Solubility of Lispro ([…] phenol + […] m-cresol, pH 7.0, NaCl 50 mM): 98.7%
- Solubility of Lispro ([…] phenol + […] m-cresol, pH 7.0, NaCl 80 mM): 96.4%
- Solubility of Lispro ([…] phenol + […] m-cresol, pH 7.0, NaCl 110 mM): 77.0%
- Solubility of Lispro ([…] phenol + […] m-cresol, pH 7.0, NaCl 140 mM): 61.2%
- Solubility of Lispro ([…] phenol + […] m-cresol, pH 7.2, NaCl 50 mM): 100.5%
- Solubility of Lispro ([…] phenol + […] m-cresol, pH 7.2, NaCl 80 mM): 99.2%
- Solubility of Lispro ([…] phenol + […] m-cresol, pH 7.2, NaCl 110 mM): 97.3%
- Solubility of Lispro ([…] phenol + […] m-cresol, pH 7.2, NaCl 140 mM): 93.1%
- Solubility of Lispro ([…] phenol + […] m-cresol, pH 7.4, NaCl 50 mM): 100.8%
- Solubility of Lispro ([…] phenol + […] m-cresol, pH 7.4, NaCl 80 mM): 101.8%
- Solubility of Lispro ([…] phenol + […] m-cresol, pH 7.4, NaCl 110 mM): 100.7%
- Solubility of Lispro ([…] phenol + […] m-cresol, pH 7.4, NaCl 140 mM): 98.4%
- Solubility of Lispro ([…] phenol + […] m-cresol, pH 7.6, NaCl 50 mM): 100.9%
- Solubility of Lispro ([…] phenol + […] m-cresol, pH 7.6, NaCl 80 mM): 102.1%
- Solubility of Lispro ([…] phenol + […] m-cresol, pH 7.6, NaCl 110 mM): 101.6%
- Solubility of Lispro ([…] phenol + […] m-cresol, pH 7.6, NaCl 140 mM): 101.3%
